Results published in patent US20100285988A1.
Where two headings read alike, the source gives them in different places.

Key:
[1] = target: T1, γ-secretase (human; HeLa cell membrane / solubilized HeLa membrane; endogenous in HEK293 cells) (human), P49768; details: modification not given
[2] = target: T1, γ-secretase (human; HeLa cell membrane …); details: modification not given; remark: listed apart in the source

IC50 [1] | IC50 [2] | Binder
8.9 µM |  | LVFFAEDV
 | 14 µM | KLVFFAED
